# Measurements published in US20140011738A1 (INDIANA UNIVERSITY RESEARCH AND TECHNOLOGY, published 2014).
# *1 amine or outer side, *2 acyl side, *3 side chain or, on linkers, in order; H or OH if unused. Where no end group is shown, it is not given here. Side-chain parts run from the residue outwards. [ ]: non-standard residue; d: D form. The star is where a group is joined. γGlu = O=C(O)[C@H](CCC(=O)[*:2])N[*:1]; Palmitoyl = CCCCCCCCCCCCCCCC(=O)*; Aib = CC(C)(N)C(=O)O
# T1: GIP receptor (UniProt P48546 22-466, limits assumed)
# T1 sequence (looked up): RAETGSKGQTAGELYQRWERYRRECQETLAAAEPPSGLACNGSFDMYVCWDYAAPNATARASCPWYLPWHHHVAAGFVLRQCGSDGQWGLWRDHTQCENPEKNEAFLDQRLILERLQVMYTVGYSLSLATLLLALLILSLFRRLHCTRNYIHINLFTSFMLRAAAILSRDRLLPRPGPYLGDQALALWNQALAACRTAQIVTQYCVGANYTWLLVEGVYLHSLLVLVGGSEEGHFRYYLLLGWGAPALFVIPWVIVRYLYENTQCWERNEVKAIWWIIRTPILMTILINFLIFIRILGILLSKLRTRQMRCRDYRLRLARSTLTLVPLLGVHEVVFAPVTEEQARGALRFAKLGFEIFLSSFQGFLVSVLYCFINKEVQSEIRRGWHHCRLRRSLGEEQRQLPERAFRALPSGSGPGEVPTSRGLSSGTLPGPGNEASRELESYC
# B1: peptide of SEQ ID NO: 43 (peptide)
# peptide: H[Aib]QGTFTSDK([γGlu-Palmitoyl])SKYLDERAAQDFVQWLLEGGPSSGAPPPS-NH2
# modifications: N-terminus assumed
# SMILES: CCCCCCCCCCCCCCCC(=O)N[C@@H](CCC(=O)NCCCC[C@H](NC(=O)[C@H](CC(=O)O)NC(=O)[C@H](CO)NC(=O)[C@@H](NC(=O)[C@H](Cc1ccccc1)NC(=O)[C@@H](NC(=O)CNC(=O)[C@H](CCC(N)=O)NC(=O)C(C)(C)NC(=O)[C@@H](N)Cc1c[nH]cn1)[C@@H](C)O)[C@@H](C)O)C(=O)N[C@@H](CO)C(=O)N[C@@H](CCCCN)C(=O)N[C@@H](Cc1ccc(O)cc1)C(=O)N[C@@H](CC(C)C)C(=O)N[C@@H](CC(=O)O)C(=O)N[C@@H](CCC(=O)O)C(=O)N[C@@H](CCCNC(=N)N)C(=O)N[C@@H](C)C(=O)N[C@@H](C)C(=O)N[C@@H](CCC(N)=O)C(=O)N[C@@H](CC(=O)O)C(=O)N[C@@H](Cc1ccccc1)C(=O)N[C@H](C(=O)N[C@@H](CCC(N)=O)C(=O)N[C@@H](Cc1c[nH]c2ccccc12)C(=O)N[C@@H](CC(C)C)C(=O)N[C@@H](CC(C)C)C(=O)N[C@@H](CCC(=O)O)C(=O)NCC(=O)NCC(=O)N1CCC[C@H]1C(=O)N[C@@H](CO)C(=O)N[C@@H](CO)C(=O)NCC(=O)N[C@@H](C)C(=O)N1CCC[C@H]1C(=O)N1CCC[C@H]1C(=O)N1CCC[C@H]1C(=O)N[C@@H](CO)C(N)=O)C(C)C)C(=O)O
# B2: peptide of SEQ ID NO: 44 (peptide)
# peptide: H[Aib]EGTFTSDK([γGlu-Palmitoyl])SKYLDERAAQDFVQWLLEGGPSSGAPPPS-NH2
# modifications: N-terminus assumed
# SMILES: CCCCCCCCCCCCCCCC(=O)N[C@@H](CCC(=O)NCCCC[C@H](NC(=O)[C@H](CC(=O)O)NC(=O)[C@H](CO)NC(=O)[C@@H](NC(=O)[C@H](Cc1ccccc1)NC(=O)[C@@H](NC(=O)CNC(=O)[C@H](CCC(=O)O)NC(=O)C(C)(C)NC(=O)[C@@H](N)Cc1c[nH]cn1)[C@@H](C)O)[C@@H](C)O)C(=O)N[C@@H](CO)C(=O)N[C@@H](CCCCN)C(=O)N[C@@H](Cc1ccc(O)cc1)C(=O)N[C@@H](CC(C)C)C(=O)N[C@@H](CC(=O)O)C(=O)N[C@@H](CCC(=O)O)C(=O)N[C@@H](CCCNC(=N)N)C(=O)N[C@@H](C)C(=O)N[C@@H](C)C(=O)N[C@@H](CCC(N)=O)C(=O)N[C@@H](CC(=O)O)C(=O)N[C@@H](Cc1ccccc1)C(=O)N[C@H](C(=O)N[C@@H](CCC(N)=O)C(=O)N[C@@H](Cc1c[nH]c2ccccc12)C(=O)N[C@@H](CC(C)C)C(=O)N[C@@H](CC(C)C)C(=O)N[C@@H](CCC(=O)O)C(=O)NCC(=O)NCC(=O)N1CCC[C@H]1C(=O)N[C@@H](CO)C(=O)N[C@@H](CO)C(=O)NCC(=O)N[C@@H](C)C(=O)N1CCC[C@H]1C(=O)N1CCC[C@H]1C(=O)N1CCC[C@H]1C(=O)N[C@@H](CO)C(N)=O)C(C)C)C(=O)O
# B3: peptide of SEQ ID NO: 18 (peptide)
# peptide: H[Aib]QGTFTSDK([γGlu-Palmitoyl])SKYLEERAAQEFVQWLLEGGPSSGAPPPS-NH2
# modifications: N-terminus assumed
# SMILES: CCCCCCCCCCCCCCCC(=O)N[C@@H](CCC(=O)NCCCC[C@H](NC(=O)[C@H](CC(=O)O)NC(=O)[C@H](CO)NC(=O)[C@@H](NC(=O)[C@H](Cc1ccccc1)NC(=O)[C@@H](NC(=O)CNC(=O)[C@H](CCC(N)=O)NC(=O)C(C)(C)NC(=O)[C@@H](N)Cc1c[nH]cn1)[C@@H](C)O)[C@@H](C)O)C(=O)N[C@@H](CO)C(=O)N[C@@H](CCCCN)C(=O)N[C@@H](Cc1ccc(O)cc1)C(=O)N[C@@H](CC(C)C)C(=O)N[C@@H](CCC(=O)O)C(=O)N[C@@H](CCC(=O)O)C(=O)N[C@@H](CCCNC(=N)N)C(=O)N[C@@H](C)C(=O)N[C@@H](C)C(=O)N[C@@H](CCC(N)=O)C(=O)N[C@@H](CCC(=O)O)C(=O)N[C@@H](Cc1ccccc1)C(=O)N[C@H](C(=O)N[C@@H](CCC(N)=O)C(=O)N[C@@H](Cc1c[nH]c2ccccc12)C(=O)N[C@@H](CC(C)C)C(=O)N[C@@H](CC(C)C)C(=O)N[C@@H](CCC(=O)O)C(=O)NCC(=O)NCC(=O)N1CCC[C@H]1C(=O)N[C@@H](CO)C(=O)N[C@@H](CO)C(=O)NCC(=O)N[C@@H](C)C(=O)N1CCC[C@H]1C(=O)N1CCC[C@H]1C(=O)N1CCC[C@H]1C(=O)N[C@@H](CO)C(N)=O)C(C)C)C(=O)O
# Target: glucagon receptor (UniProt P47871 26-477, limits assumed)
# Sequence (P47871 26-477 limits assumed): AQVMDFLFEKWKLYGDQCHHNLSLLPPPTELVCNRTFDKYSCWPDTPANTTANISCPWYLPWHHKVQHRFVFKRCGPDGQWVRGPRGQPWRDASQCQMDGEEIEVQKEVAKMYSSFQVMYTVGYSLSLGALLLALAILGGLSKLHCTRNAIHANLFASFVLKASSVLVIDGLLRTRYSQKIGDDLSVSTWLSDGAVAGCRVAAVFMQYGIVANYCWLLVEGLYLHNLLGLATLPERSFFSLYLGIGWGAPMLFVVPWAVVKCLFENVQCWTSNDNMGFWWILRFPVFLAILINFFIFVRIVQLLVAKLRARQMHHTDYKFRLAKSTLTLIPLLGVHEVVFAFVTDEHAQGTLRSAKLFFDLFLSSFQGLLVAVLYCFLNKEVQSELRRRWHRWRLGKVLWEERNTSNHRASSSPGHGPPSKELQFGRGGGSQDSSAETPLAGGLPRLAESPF
# Experiment: cell-based or functional assay
row,Binder,EC50 at Glucagon Receptor [pM]
1,B1,6
2,H[Aib]QGTFTSDYSKYLEERAAQDFVQWLLDGGPSSGAPPPSK([γGlu-γGlu-Palmitoyl])G-NH2 [peptide of SEQ ID NO: 15],5
3,H[Aib]QGTFTSDK([γGlu-Palmitoyl])SKYLDERAAQDFVQWLLDGGPSSGAPPPS-NH2 [peptide of SEQ ID NO: 10],4
4,H[Aib]QGTFTSEYSKYLDERAAQDFVQWLLDGGPSSGAPPPSK([γGlu-γGlu-Palmitoyl])G-NH2 [peptide of SEQ ID NO: 16],28
5,H[Aib]QGTFTSDYSKYLDERAAQDFVQWLLDGGPSSGAPPPSK([γGlu-γGlu-Palmitoyl])G-NH2 [peptide of SEQ ID NO: 11],4
6,H[Aib]QGTFTSDYAKYLDERAAQDFVQWLLDGGPSSGAPPPSK([γGlu-γGlu-Palmitoyl])G-NH2 [peptide of SEQ ID NO: 17],19
7,B2,1470
8,B3,7

# Target: GLP-1 receptor (UniProt P43220 24-463, limits assumed)
# Sequence (P43220 24-463 limits assumed): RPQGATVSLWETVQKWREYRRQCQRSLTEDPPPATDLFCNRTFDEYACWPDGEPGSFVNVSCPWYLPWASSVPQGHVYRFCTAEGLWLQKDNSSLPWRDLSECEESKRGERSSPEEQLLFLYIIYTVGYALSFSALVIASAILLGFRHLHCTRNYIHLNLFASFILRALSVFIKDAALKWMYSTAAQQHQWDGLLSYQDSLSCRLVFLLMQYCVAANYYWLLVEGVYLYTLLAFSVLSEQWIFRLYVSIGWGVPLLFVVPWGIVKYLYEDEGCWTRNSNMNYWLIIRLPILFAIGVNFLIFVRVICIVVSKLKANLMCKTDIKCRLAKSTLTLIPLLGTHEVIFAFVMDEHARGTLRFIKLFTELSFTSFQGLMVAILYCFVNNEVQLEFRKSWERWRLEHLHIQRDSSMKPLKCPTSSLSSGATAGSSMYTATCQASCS
# Experiment: cell-based or functional assay
row,Binder,EC50 at GLP-1 Receptor [pM]
1,B1,4
2,H[Aib]QGTFTSDYSKYLEERAAQDFVQWLLDGGPSSGAPPPSK([γGlu-γGlu-Palmitoyl])G-NH2 [peptide of SEQ ID NO: 15],3
3,H[Aib]QGTFTSDK([γGlu-Palmitoyl])SKYLDERAAQDFVQWLLDGGPSSGAPPPS-NH2 [peptide of SEQ ID NO: 10],4
4,H[Aib]QGTFTSEYSKYLDERAAQDFVQWLLDGGPSSGAPPPSK([γGlu-γGlu-Palmitoyl])G-NH2 [peptide of SEQ ID NO: 16],2
5,H[Aib]QGTFTSDYSKYLDERAAQDFVQWLLDGGPSSGAPPPSK([γGlu-γGlu-Palmitoyl])G-NH2 [peptide of SEQ ID NO: 11],1
6,H[Aib]QGTFTSDYAKYLDERAAQDFVQWLLDGGPSSGAPPPSK([γGlu-γGlu-Palmitoyl])G-NH2 [peptide of SEQ ID NO: 17],8
7,B2,7
8,B3,8

# Target: T1, GIP receptor
# Experiment: cell-based or functional assay
row,Binder,EC50 at GIP Receptor [pM]
1,B1,5
2,H[Aib]QGTFTSDYSKYLEERAAQDFVQWLLDGGPSSGAPPPSK([γGlu-γGlu-Palmitoyl])G-NH2 [peptide of SEQ ID NO: 15],8
3,H[Aib]QGTFTSDK([γGlu-Palmitoyl])SKYLDERAAQDFVQWLLDGGPSSGAPPPS-NH2 [peptide of SEQ ID NO: 10],4
4,H[Aib]QGTFTSEYSKYLDERAAQDFVQWLLDGGPSSGAPPPSK([γGlu-γGlu-Palmitoyl])G-NH2 [peptide of SEQ ID NO: 16],54
5,H[Aib]QGTFTSDYSKYLDERAAQDFVQWLLDGGPSSGAPPPSK([γGlu-γGlu-Palmitoyl])G-NH2 [peptide of SEQ ID NO: 11],24
6,H[Aib]QGTFTSDYAKYLDERAAQDFVQWLLDGGPSSGAPPPSK([γGlu-γGlu-Palmitoyl])G-NH2 [peptide of SEQ ID NO: 17],20
7,B2,27
8,B3,7
